Three molecules from patent US20250264471A1 (INDI MOLECULAR, published 2025) can be followed below.

Numbered stars: 1 amine (or outer) side, 2 acyl side, 3 side chain; on linkers, the order of the positions; unused ones are H or OH. Bridge positions count the residues as written; N and C are the ends. Square brackets hold non-standard residues; d marks the D form. Primed or numbered codes have the meaning given here. Ends that are not written are not given here. I, II: the chains in the order shown. * marks the point of attachment. Az8″ = 2-amino-10-azidodecanoic acid (azido amino acid), [N-]=[N+]=NCCCCCCCC[C@H](N[*:1])C(=O)[*:2]; Butanoyl(4-ethynyl) = C#CCCCC(=O)*; Biotin′ = not defined here; Pra = C#CC[C@H](N)C(=O)O; C8N3 = not defined here; 5HA = not defined here; Az8 = not defined here

Test [1] addresses T1, Akt1-S473E (H. sapiens, UniProt P31749 118-480 (human entry)).
T1 construct: Partially active Akt1 kinase domain expressed in Hi5 insect cells from pVLAKT.2; also called Akt-S473E; AktS473E
T1 chain: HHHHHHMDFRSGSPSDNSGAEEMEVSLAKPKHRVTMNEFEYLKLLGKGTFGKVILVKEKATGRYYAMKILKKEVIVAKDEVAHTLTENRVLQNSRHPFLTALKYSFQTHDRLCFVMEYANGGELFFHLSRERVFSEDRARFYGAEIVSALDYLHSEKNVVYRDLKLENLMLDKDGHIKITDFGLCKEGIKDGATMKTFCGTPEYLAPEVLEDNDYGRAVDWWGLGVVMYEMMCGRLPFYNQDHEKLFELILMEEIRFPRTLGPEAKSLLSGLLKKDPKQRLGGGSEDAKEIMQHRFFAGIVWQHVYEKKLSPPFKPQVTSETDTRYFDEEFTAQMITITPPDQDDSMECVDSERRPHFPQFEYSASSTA
The test can be described thus: ELISA.

Test [2] concerns the target T1, Akt1-S473E. The test can be described thus: ELISA: Akt-S473E on Ni-NTA plate, biotinylated peptide titrated, SA-HRP. As for the experimental part: 3 μg of Akt-S473E was added to each well in a HisSorb Ni-NTA plate (Qiagen) in 50 μL of ELISA blocking buffer (25 mM Tris-CI (pH=7.5), 150 mM NaCl, 10 mM MgCl₂, 0.1% (v/v) Tween-20, and 4 mg/mL BSA). 50 μL of imidazole blocking buffer (25 mM Tris-CI (pH=7.5), 150 mM NaCl, 10 mM MgCl₂, 0.1% (v/v) Tween-20, 100 mM imidazole, and 4 mg/mL BSA) was added to the control wells. After 18 hours at 4° C., the wells were washed with ELISA blocking buffer and 50 μL of each ligand dilution was added in ELISA blocking buffer. The ligands were bound at 4° C. for 120 minutes followed by three washed in ELISA blocking buffer. 50 μL of horseradish peroxidase-conjugated streptavidin (SA-HRP, Thermo) was added (1:5000 dilution in ELISA blocking buffer) and incubated for 70 minutes at 4° C. The wells were washed three times in TBST (Tris-buffered saline+0.2% Tween-20) and once in TBS (Tris-buffered saline). 50 μL of peroxidase substrate (KPL) was added to generate the final signal which was quenched in 1 M H₂SO₄ and quantitated on a 96-well plate reader at λ=450 nm. The Net A450 was calculated by subtracting the A450 of each blank well (No Akt-S473E) from the experimental well. The data were fit by non-linear regression in GraphPad Prism.

For test [3], the target named is T1, Akt1-S473E. The experiment in a line: SPR (Biacore T100): biotinylated triligand on streptavidin chip, Akt1-S473E 9000 nM to 1 nM as analyte, 10 °C, from kinetic constants. As for the experimental part:
For this experiment, the biotinylated triligand was immobilized on a streptavidin-derivatized biacore chip and probed with Akt-S473E at concentrations ranging from 9 μM to 1 nM.
Triligand binding affinity was further analyzed by SPR using a Biacore T100. A Streptavidin Chip (Series S, G.E. Healthcare) was conditioned as recommended by the manufacturer. Biotinylated ligand was diluted into HBSP+ Buffer (G.E. Healthcare) to a final concentration of 100 nM and 137 RU was immobilized on the chip. Akt1-S473E was prepared as described previously and subjected to buffer exchange into HBSP+using Zeba Desalting Columns (Pierce). Serial dilutions of the enzyme were made in HBSP+ buffer (9000 nM to 1 nM) and flowed over the chip at 50 μL/minute. Binding and dissociation were carried out at 10° C. with a contact time of 360 seconds, a dissociation time of 400 seconds, and a stabilization time of 200 seconds. The response was corrected using an unmodified reference flow cell. Kinetic constants were obtained from the sensograms and used to calculate the dissociation constant.

For test [4], the target named is T2, Akt1-S473E-T308P (H. sapiens, UniProt P31749 118-480 (human entry), phosphorylated at residue T308 (phosphothreonine)).
T2 construct: Fully active kinase; T308P means phospho-T308, not a proline substitution; Same construct as Akt1-S473E; also called Akt-S473E-T308P; Akt-S473E/T308P
T2 chain: T1 chain
The experiment in a line: kinase kinetics, Dixon plot of 1/v vs. [Triligand] with varying [ATP]; noncompetitive. As to the method: To determine the inhibition mode of the triligand with respect to the ATP, kinase reactions were set up with increasing concentrations of ATP. The reactions were set up in a similar manner to that described above. The concentration of Biotin-Crosstide was held constant at 25 μM and the concentration of enzyme was held at […]. The concentration of ATP ranged from 125 μM to 4 μM (125 μM, 63 μM, 32 μM, 16 μM, 8 μM, 4 μM) while the concentration of triligand varied from 0 to 10 μM (0, 1 μM, 5 μM, 10 μM). [γ-³²P]-ATP (7000 Ci/mmol, 10 μCi/μL) was added to the cold ATP stock to maintain an [ATP]ₜₒₜₐₗ/[γ-³²P]-ATP ratio of 1667. The reactions were incubated, quenched, and analyzed as described above.
KM and Vₘₐₓ values for Akt1-S473ET308P were obtained by nonlinear regression from the results of the inhibition experiments (GraphPad). The literature values for the Michaelis constants for ATP and substrate peptide were taken from Klein 2005. The triligand Kᵢ (noncompetitive inhibition) was obtained from the negative X-intercept of the Dixon plot of 1/v vs. [Triligand] with varying [ATP]. The Kᵢ is the mean value of the observed X-intercepts and the error range is the standard deviation. The triligand K_{i′}, (uncompetitive inhibition) was obtained from the intercept of the Dixon plot of 1/v vs. [Triligand] with varying [Peptide]. […]

B1: biotinylated anchor ligand Az8-VFYRLGY-Biotin (peptide)
peptide: [Az8″]VFYRLGY-biotin
notes: also called anchor peptide; biotinylated anchor peptide
B1 had a Kd in test [1] of 25 µM. This counts as double-digit micromolar.

B2: 5HA-Biligand-Bio (Akt biligand) (designed binder)
peptide 1: {Butanoyl(4-ethynyl)-Az8}-VFYRLGY-biotin
peptide 2: Ac-[Pra]FWFLRG-NH2
modifications: triazole II:N-II:1; reading uncertain; also: mixture of diastereomers
notes: Branched peptide, mixture of diastereomers; also called biotinylated biligand
For B2, the “fold improvement in affinity relative to the anchor peptide” value in test [2] is more than 100 fold.

B3: Akt triligand (biotinylated) (designed binder)
peptide 1: {5HA-C8N3}-VFYRLGY-{Biotin′}
peptide 2: Ac-[Pra]FWFLRG-NH2
peptide 3: {Ac-C8N3}-RHERI-NH2
modifications: triazole II:N-II:1; reading uncertain; also: triazole to a chain's N-terminus
notes: Assembled from 5HA-Biligand-Bio and Ac-C8N3-RHERI-CONH2; also called branched triligand
B3: the affinity in test [3], expressed as Kd, was 0.2 µM. The molecule further registered an inhibition constant (Ki) in test [4] of 4 µM.
